Assay results published in the supplement of paper PMC10567573.

B1: TSPAN10 (parent)
chain: EGCGPPLRRWLRANLAASGGYAIA
B2: ATL3 (parent)
chain: HFKKTKKMGGKDFSFRYQQELEEE

Variants of: B1
Assay: protein stability index of a GFP-peptide fusion (GPS, HEK-293T) (PSI 1-6); higher = more stable
Settings: c terminus: a fixed tail appended
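Also: lentivirally expressed fusions sorted by FACS into six bins by GFP to DsRed ratio, PSI derived from sequencing read proportions per bin multiplied by bin number.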

Variant	protein stability index
EGCGPPRRRWLRANLAASGGYAIA [L7R]	3.1
EGCGPPLSRWLRANLAASGGYAIA [R8S]	1.7
EGCGPPLQRWLRANLAASGGYAIA [R8Q]	2.05
EGCGPPLRRWLRANVAASGGYAIA [L15V]	2.07
EGCGPPLRRWLRANSAASGGYAIA [L15S]	2.94
EGCGPPLRRWLRQNLAASGGYAIA [A13Q]	2.83
EGCGPPLRRWLRANLAASGGVAIA [Y21V]	2.53
EGCGPPLRRWLRANLAASGGNAIA [Y21N]	2.61
EGCGPPLRRWLRANLAASGGYAIV [A24V]	1.67
EGCGPPLRRWLRANLAASGGYAIE [A24E]	2.92
EGCGPPLRRWLRANLAASGGYAIY [A24Y]	1.16
EGCGPPLRRWLRANLAASGGYAIK [A24K]	2.15
EGCGPPLRRWLRANLAASGGYAIR [A24R]	2.12
EGCGPPLRRWLRANLAASGGYAIG [A24G]	1.65
EGCGPPLRRWLPANLAASGGYAIA [R12P]	2.5
EGCGPPLRRWLEANLAASGGYAIA [R12E]	2.23
EGCGPPLRRWLNANLAASGGYAIA [R12N]	1.73
EGCGPPLRRWLWANLAASGGYAIA [R12W]	3.67
EGCGPPLRRWLAANLAASGGYAIA [R12A]	1.75
EGCGPPLRTWLRANLAASGGYAIA [R9T]	1.7
EGCGPPLRWWLRANLAASGGYAIA [R9W]	1
EGCGPPLRNWLRANLAASGGYAIA [R9N]	2.72
EGCGPPLRHWLRANLAASGGYAIA [R9H]	1.58

Variant	protein stability index
EQCGPPLRRWLRANLAASGGYAIA [G2Q]	2.33
EGCGPPLRRWLRAELAASGGYAIA [N14E]	1.47
EGCGPPLRRWLRAYLAASGGYAIA [N14Y]	1.46
EGCGPPLRRWLRAHLAASGGYAIA [N14H]	2.48
EGCGQPLRRWLRANLAASGGYAIA [P5Q]	1.79
EGCGSPLRRWLRANLAASGGYAIA [P5S]	1.44
EGCSPPLRRWLRANLAASGGYAIA [G4S]	2.09
EGCAPPLRRWLRANLAASGGYAIA [G4A]	1.54
EGCNPPLRRWLRANLAASGGYAIA [G4N]	2.06
EGCGPPLRRGLRANLAASGGYAIA [W10G]	3.35
EGCGPPLRRQLRANLAASGGYAIA [W10Q]	2.24
EGCGPPLRRLLRANLAASGGYAIA [W10L]	2.42
EGCGPPLRRWLRANLARSGGYAIA [A17R]	1.44
EGCGPPLRRWLRANLAVSGGYAIA [A17V]	1.4
EGCGPPLRRWLRANLAASNGYAIA [G19N]	2.13
EGCGPPLRRWLRANLAASGVYAIA [G20V]	2.21
EGCGPPLRRWLRANLAASGIYAIA [G20I]	1.49
EGCGPPLRRWLRANLAASGEYAIA [G20E]	2.33
EGCGPPLRRWLRANLAASGKYAIA [G20K]	2.77
EGCGPPLRRWLRANLAASGCYAIA [G20C]	1.56
EGCGPPLRRWLRANLAASGPYAIA [G20P]	2
EGCGPPLRRWLRANLAASGWYAIA [G20W]	1.84
EGCGPPLRRWQRANLAASGGYAIA [L11Q]	3.13

Variant	protein stability index
EGCGPPLRRWHRANLAASGGYAIA [L11H]	2.94
EGCGPPLRRWARANLAASGGYAIA [L11A]	2.55
EGCGPPLRRWLRANLAASGGYEIA [A22E]	2.28
EGCGPPLRRWLRANLAASGGYMIA [A22M]	1.62
EGCGPPLRRWLRANLAASGGYLIA [A22L]	2.06
EGCGPPLRRWLRANLAASGGYDIA [A22D]	2.46
EGAGPPLRRWLRANLAASGGYAIA [C3A]	2.3
EGLGPPLRRWLRANLAASGGYAIA [C3L]	2.65
EGCGPPLRRWLRANLAAMGGYAIA [S18M]	1.6
EGCGPPLRRWLRANLAAYGGYAIA [S18Y]	1.4
EGCGPPLRRWLRANLAANGGYAIA [S18N]	2.01
EGCGPPLRRWLRANLAAPGGYAIA [S18P]	2.28
EGCGPPLRRWLRANLAAKGGYAIA [S18K]	1.61
AGCGPPLRRWLRANLAASGGYAIA [E1A]	1.63
IGCGPPLRRWLRANLAASGGYAIA [E1I]	1.81
EGCGPPLRRWLRANLSASGGYAIA [A16S]	1.68
EGCGPDLRRWLRANLAASGGYAIA [P6D]	1.94
EGCGPYLRRWLRANLAASGGYAIA [P6Y]	1.62
EGCGPELRRWLRANLAASGGYAIA [P6E]	1.48
EGCGPSLRRWLRANLAASGGYAIA [P6S]	1.72
EGCGPPLRRWLRANLAASGGYALA [I23L]	2.16
EGCGPPLRRWLRANLAASGGYAEA [I23E]	2.34

Variants of: B2
Assay: as above
Settings: c terminus: a fixed tail appended

Variant	protein stability index
HFKKVKKMGGKDFSFRYQQELEEE [T5V]	2.75
HFKKLKKMGGKDFSFRYQQELEEE [T5L]	2.53
HFKKWKKMGGKDFSFRYQQELEEE [T5W]	3.29
HFKKAKKMGGKDFSFRYQQELEEE [T5A]	1.5
HFKKHKKMGGKDFSFRYQQELEEE [T5H]	1.83
HFKKPKKMGGKDFSFRYQQELEEE [T5P]	1.78
HFKKFKKMGGKDFSFRYQQELEEE [T5F]	2.44
HFKKRKKMGGKDFSFRYQQELEEE [T5R]	1.31
HFKKYKKMGGKDFSFRYQQELEEE [T5Y]	1.75
HFKKMKKMGGKDFSFRYQQELEEE [T5M]	2.57
HFKKCKKMGGKDFSFRYQQELEEE [T5C]	2.37
HFKKSKKMGGKDFSFRYQQELEEE [T5S]	2.26
HFKKGKKMGGKDFSFRYQQELEEE [T5G]	1.35
HFKKNKKMGGKDFSFRYQQELEEE [T5N]	2.58
HFKKQKKMGGKDFSFRYQQELEEE [T5Q]	1.8
HFKKKKKMGGKDFSFRYQQELEEE [T5K]	2.22
HFKKIKKMGGKDFSFRYQQELEEE [T5I]	2.17
HVKKTKKMGGKDFSFRYQQELEEE [F2V]	2.62
HIKKTKKMGGKDFSFRYQQELEEE [F2I]	2.65
HRKKTKKMGGKDFSFRYQQELEEE [F2R]	2.64
HEKKTKKMGGKDFSFRYQQELEEE [F2E]	1.09
HTKKTKKMGGKDFSFRYQQELEEE [F2T]	1.87
HNKKTKKMGGKDFSFRYQQELEEE [F2N]	2.28
HYKKTKKMGGKDFSFRYQQELEEE [F2Y]	2.1

Variant	protein stability index
HPKKTKKMGGKDFSFRYQQELEEE [F2P]	1.26
HDKKTKKMGGKDFSFRYQQELEEE [F2D]	2.65
HAKKTKKMGGKDFSFRYQQELEEE [F2A]	1.48
HSKKTKKMGGKDFSFRYQQELEEE [F2S]	1.91
HMKKTKKMGGKDFSFRYQQELEEE [F2M]	2.76
HLKKTKKMGGKDFSFRYQQELEEE [F2L]	1.39
HCKKTKKMGGKDFSFRYQQELEEE [F2C]	1.8
HGKKTKKMGGKDFSFRYQQELEEE [F2G]	1.4
HQKKTKKMGGKDFSFRYQQELEEE [F2Q]	3.05
HHKKTKKMGGKDFSFRYQQELEEE [F2H]	1.62
HFKETKKMGGKDFSFRYQQELEEE [K4E]	1.6
HFKPTKKMGGKDFSFRYQQELEEE [K4P]	1.82
HFKMTKKMGGKDFSFRYQQELEEE [K4M]	2.26
HFKHTKKMGGKDFSFRYQQELEEE [K4H]	2.1
HFKDTKKMGGKDFSFRYQQELEEE [K4D]	3.67
HFKVTKKMGGKDFSFRYQQELEEE [K4V]	1.62
HFKWTKKMGGKDFSFRYQQELEEE [K4W]	1.61
HFKQTKKMGGKDFSFRYQQELEEE [K4Q]	1.75
HFKCTKKMGGKDFSFRYQQELEEE [K4C]	2.55
HFKGTKKMGGKDFSFRYQQELEEE [K4G]	2.67
HFKSTKKMGGKDFSFRYQQELEEE [K4S]	3.01
HFKLTKKMGGKDFSFRYQQELEEE [K4L]	2.6
HFKITKKMGGKDFSFRYQQELEEE [K4I]	1.66
HFKTTKKMGGKDFSFRYQQELEEE [K4T]	2.1

Variant	protein stability index
HFKATKKMGGKDFSFRYQQELEEE [K4A]	2.72
HFKNTKKMGGKDFSFRYQQELEEE [K4N]	2.26
HFKYTKKMGGKDFSFRYQQELEEE [K4Y]	1.23
HFGKTKKMGGKDFSFRYQQELEEE [K3G]	1.86
HFNKTKKMGGKDFSFRYQQELEEE [K3N]	2.18
HFTKTKKMGGKDFSFRYQQELEEE [K3T]	1.04
HFDKTKKMGGKDFSFRYQQELEEE [K3D]	2.34
HFQKTKKMGGKDFSFRYQQELEEE [K3Q]	3.21
HFIKTKKMGGKDFSFRYQQELEEE [K3I]	1.89
HFLKTKKMGGKDFSFRYQQELEEE [K3L]	1.98
HFVKTKKMGGKDFSFRYQQELEEE [K3V]	2.4
HFEKTKKMGGKDFSFRYQQELEEE [K3E]	1.43
HFWKTKKMGGKDFSFRYQQELEEE [K3W]	1.02
HFPKTKKMGGKDFSFRYQQELEEE [K3P]	1.9
HFFKTKKMGGKDFSFRYQQELEEE [K3F]	2.41
HFHKTKKMGGKDFSFRYQQELEEE [K3H]	1.73
HFYKTKKMGGKDFSFRYQQELEEE [K3Y]	2.75
HFRKTKKMGGKDFSFRYQQELEEE [K3R]	2.42
HFAKTKKMGGKDFSFRYQQELEEE [K3A]	2.06
HFSKTKKMGGKDFSFRYQQELEEE [K3S]	1.79
HFMKTKKMGGKDFSFRYQQELEEE [K3M]	2.71
WFKKTKKMGGKDFSFRYQQELEEE [H1W]	2.22
FFKKTKKMGGKDFSFRYQQELEEE [H1F]	1.88
MFKKTKKMGGKDFSFRYQQELEEE [H1M]	2.32

Variant	protein stability index
VFKKTKKMGGKDFSFRYQQELEEE [H1V]	2.26
KFKKTKKMGGKDFSFRYQQELEEE [H1K]	3.03
SFKKTKKMGGKDFSFRYQQELEEE [H1S]	1.73
LFKKTKKMGGKDFSFRYQQELEEE [H1L]	1.65
TFKKTKKMGGKDFSFRYQQELEEE [H1T]	3.89
AFKKTKKMGGKDFSFRYQQELEEE [H1A]	2.35
NFKKTKKMGGKDFSFRYQQELEEE [H1N]	2.03
PFKKTKKMGGKDFSFRYQQELEEE [H1P]	3.17
IFKKTKKMGGKDFSFRYQQELEEE [H1I]	1.36
HFKKTKVMGGKDFSFRYQQELEEE [K7V]	1.84
HFKKTKCMGGKDFSFRYQQELEEE [K7C]	2.44
HFKKTKAMGGKDFSFRYQQELEEE [K7A]	2.02
HFKKTKPMGGKDFSFRYQQELEEE [K7P]	2.56
HFKKTKTMGGKDFSFRYQQELEEE [K7T]	1.9
HFKKTKMMGGKDFSFRYQQELEEE [K7M]	2.88
HFKKTKNMGGKDFSFRYQQELEEE [K7N]	2.11
HFKKTKIMGGKDFSFRYQQELEEE [K7I]	2.9
HFKKTKRMGGKDFSFRYQQELEEE [K7R]	1.65
HFKKTKHMGGKDFSFRYQQELEEE [K7H]	2.32
HFKKTKSMGGKDFSFRYQQELEEE [K7S]	2.04
HFKKTKLMGGKDFSFRYQQELEEE [K7L]	2.1
HFKKTKQMGGKDFSFRYQQELEEE [K7Q]	2.54
HFKKTKGMGGKDFSFRYQQELEEE [K7G]	1.8
HFKKTSKMGGKDFSFRYQQELEEE [K6S]	1.81

Variant	protein stability index
HFKKTRKMGGKDFSFRYQQELEEE [K6R]	1.99
HFKKTCKMGGKDFSFRYQQELEEE [K6C]	2.15
HFKKTYKMGGKDFSFRYQQELEEE [K6Y]	2.38
HFKKTEKMGGKDFSFRYQQELEEE [K6E]	2.1
HFKKTPKMGGKDFSFRYQQELEEE [K6P]	1.2
HFKKTHKMGGKDFSFRYQQELEEE [K6H]	1.52
HFKKTQKMGGKDFSFRYQQELEEE [K6Q]	2.39
HFKKTTKMGGKDFSFRYQQELEEE [K6T]	1.96
HFKKTFKMGGKDFSFRYQQELEEE [K6F]	3.58
HFKKTIKMGGKDFSFRYQQELEEE [K6I]	1.37
HFKKTMKMGGKDFSFRYQQELEEE [K6M]	2.51
HFKKTNKMGGKDFSFRYQQELEEE [K6N]	2.15
HFKKTWKMGGKDFSFRYQQELEEE [K6W]	1.51
HFKKTVKMGGKDFSFRYQQELEEE [K6V]	2.46
HFKKTAKMGGKDFSFRYQQELEEE [K6A]	2.4
HFKKTKKAGGKDFSFRYQQELEEE [M8A]	2.39
HFKKTKKDGGKDFSFRYQQELEEE [M8D]	2.14
HFKKTKKCGGKDFSFRYQQELEEE [M8C]	2.24
HFKKTKKFGGKDFSFRYQQELEEE [M8F]	1.68
HFKKTKKEGGKDFSFRYQQELEEE [M8E]	2.72
HFKKTKKHGGKDFSFRYQQELEEE [M8H]	2.29
HFKKTKKKGGKDFSFRYQQELEEE [M8K]	3.19
HFKKTKKIGGKDFSFRYQQELEEE [M8I]	1.96
HFKKTKKGGGKDFSFRYQQELEEE [M8G]	3.01
